# In doi:10.1101/2024.01.24.576984 (bioRxiv, 2024):
# How the values were obtained:
# 2S-hsINTS13-hsINTS14 = 2S-hsINTS13-hsINTS14 (human, UniProt Q9NVM9;Q96SY0); experiment: fluorescence polarisation
# hsINTS13(1-256Δ27-48) = hsINTS13(1-256Δ27-48) (human, UniProt Q9NVM9 1-256, Δ27-48); experiment: crystal structure
Binder,Kd (2S-hsINTS13-hsINTS14) [nM],binding result (hsINTS13(1-256Δ27-48))
YDSDGDKSDDLVVDVSNE [GFP-hsTLE3 (238-255)],> 10000,–
EGEEDEEGKLVIDEPAK [GFP-hsHDGF S2E (130-146)],2630,–
EGSSDEEGKLVIDEPAK [GFP-hsHDGF (130-146)],5850,–
DDWEIGVGNLIIDLDAD [GFP-hsZNF608 (24-40)],633,–
DTGSETDEEDKLHIAEDD [GFP-hsZEB2 (33-50)],> 10000,–

# The next lines start with the values.
Kd (2S-hsINTS13-hsINTS14) [nM],binding result (hsINTS13(1-256Δ27-48)),Binder
–,binds,EDRLERLQEILRKFLYLEREFRQITIS [hsZNF655(93-119)]
573,–,DEWDIGVGNLIIDLDAD [GFP-hsZNF609 (25-41)]
17.6,–,EDRLERLQEILRKFLYLEREFRQITIS [GFP-hsZNF655 (93-119)]
